This data set deals with the molecule itself. Put plainly: circular dichroism of purified D4 in 0.1M sodium phosphate pH 7.0 after two days at 4° C.; self-association into homotrimeric helices. How it is done: The solution was incubated at 4° C. for two days to allow triple helices to form prior to analysis. Spectra were obtained on an Aviv model 62DS spectropolarimeter (Yale University, Molecular Biophysics and Biochemistry Department). A 1 mm path length quartz suprasil fluorimeter cell was used. Following a 10 min. incubation period at 4° C., standard wavelength spectra were recorded from 260 to 190 nm using 10 sec acquisition times and 0.5 nm scan steps. This spectrum is characterized by a negative ellipticity at 198 nm and a positive ellipticity at 221 nm. The magnitudes of both of these absorbances was greater in neutral pH buffer compared to acidic conditions. […] See, e.g., Venugopal et al., Biochemistry, 33, 7948 (1994). Heating at 85° C. for five minutes prior to obtaining the CD spectrum decreased the magnitude of the absorbance at 198 nm and abolished the absorbance at 221 nm (FIG. 33). This behavior is also typical of the triple helical structure of collagen. See, R. S. Bhatnagar et al., Circular Dichroism and the Conformational Analysis of Biomolecules G. D. Fasman, Ed., supra. A thermal melt profile of D4 conducted as above in phosphate buffer gave a melting temperature of about 29° C. […] (See, A. Rossi, et al., Biochemistry 35, 6048 (1996)).

B1: D4, 219 amino acid C-terminal fragment of human collagen Type I (α1), hydroxyproline-containing (other)
chain: MGPPGLAGPPGESGREGAPGAEGSPGRDGSPGAKGDRGETGPAGPPGAPGAPGAPGPVGPAGKSGDRGETGPAGPAGPVGPAGARGPAGPQGPRGDKGETGEQGDRGIKGHRGFSGLQGPPGPPGSPGEQGPSGASGPAGPRGPPGSAGAPGKDGLNGLPGPIGPPGPRGRTGDAGPVGPPGPPGPPGPPGPPSAGFDFSFLPQPPQEKAHDGGRYYRA
modifications: trans-4-hydroxyproline in place of proline at all proline positions (100% substitution by mass spectrometry and amino acid analysis)
notes: also called D4-α1; protein D4
Turning to B1, the binding result is listed as “binds”.

These data come from patent US6958223 (UNITED STATES SURGICAL, dated 2005).
